Test results from article doi:10.1101/2022.05.17.492379.

What was measured:
Esrrb = target: T1, Esrrb (Mus musculus, UniProt Q61539 1-433); test: fluorescence polarization
T1 sequence: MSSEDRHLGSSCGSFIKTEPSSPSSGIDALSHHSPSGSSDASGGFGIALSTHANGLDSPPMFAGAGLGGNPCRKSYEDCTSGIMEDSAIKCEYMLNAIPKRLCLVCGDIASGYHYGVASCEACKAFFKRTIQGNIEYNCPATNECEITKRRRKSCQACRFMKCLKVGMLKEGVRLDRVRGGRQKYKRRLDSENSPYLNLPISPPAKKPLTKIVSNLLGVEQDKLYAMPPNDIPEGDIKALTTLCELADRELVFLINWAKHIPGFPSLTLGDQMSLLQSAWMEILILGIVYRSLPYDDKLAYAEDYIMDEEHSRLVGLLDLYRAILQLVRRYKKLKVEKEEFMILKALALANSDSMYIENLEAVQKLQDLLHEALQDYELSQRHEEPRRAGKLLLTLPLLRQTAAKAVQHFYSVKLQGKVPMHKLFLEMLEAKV

Nr5a2 = Nr5a2 (Mus musculus, UniProt P45448 1-560); test: fluorescence polarization
Chain of Nr5a2 (P45448 whole entry): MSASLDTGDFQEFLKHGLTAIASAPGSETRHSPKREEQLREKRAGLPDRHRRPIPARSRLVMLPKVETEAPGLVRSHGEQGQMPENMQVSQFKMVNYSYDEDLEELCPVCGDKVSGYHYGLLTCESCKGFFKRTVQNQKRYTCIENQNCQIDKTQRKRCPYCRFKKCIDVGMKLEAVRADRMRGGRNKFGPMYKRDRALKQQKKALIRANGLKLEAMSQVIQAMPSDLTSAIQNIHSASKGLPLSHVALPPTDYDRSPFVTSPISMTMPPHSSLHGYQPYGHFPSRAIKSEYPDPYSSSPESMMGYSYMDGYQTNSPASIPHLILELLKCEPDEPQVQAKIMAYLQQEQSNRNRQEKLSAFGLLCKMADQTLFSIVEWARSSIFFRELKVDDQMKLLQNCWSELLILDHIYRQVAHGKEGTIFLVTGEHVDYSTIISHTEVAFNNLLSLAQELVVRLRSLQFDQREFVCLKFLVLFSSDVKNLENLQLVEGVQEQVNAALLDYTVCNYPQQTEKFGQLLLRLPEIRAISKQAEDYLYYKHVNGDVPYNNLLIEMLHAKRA

B1: Esrrb motif DNA (dsDNA)
DNA 1: GAGAGAGTCAAGGTCATGGCTCACT
DNA 2: AGTGAGCCATGACCTTGACTCTCTC
Esrrb
  Kd: 8.56 ± 0.69 nM
Nr5a2
  Kd: 6.49 ± 0.35 nM

B2: Nr5a2 motif DNA (dsDNA)
DNA 1: GAGAGAGTCAAGGCCATGGCTCACT
DNA 2: AGTGAGCCATGGCCTTGACTCTCTC
Esrrb
  Kd: 626 ± 133 nM
Nr5a2
  Kd: 5.62 ± 1 nM
